Results taken from patent US20260209316A1.
Where two headings read alike, the source gives them in different places.

How the values were obtained:
[1] = biological target: thermolysin-cleaved SUDV GP (GP(S)THL) (Sudan virus (SUDV)) (UniProt Q7T9D9); experiment: BLI; Sudan GPTHL on sensor, NPC1-dC, then NPC1-dC (self-competition)
[2] = biological target: thermolysin-cleaved SUDV GP (GP(S)THL) (Sudan virus (SUDV)) (UniProt Q7T9D9); experiment: as above; remark: listed apart in the source

Niemann-Pick disease, type C1-domain C (NPC1-dC), sequence (O15118 373-620 limits assumed): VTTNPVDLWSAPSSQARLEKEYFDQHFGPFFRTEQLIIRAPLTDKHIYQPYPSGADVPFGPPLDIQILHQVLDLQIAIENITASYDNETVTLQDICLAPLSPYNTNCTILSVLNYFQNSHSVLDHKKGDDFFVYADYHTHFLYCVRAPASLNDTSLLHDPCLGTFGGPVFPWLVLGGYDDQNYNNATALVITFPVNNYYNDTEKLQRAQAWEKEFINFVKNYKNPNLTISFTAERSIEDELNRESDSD

Niemann-Pick disease, type C1-domain C (NPC1-dC) (from UniProt O15118 373-620) (receptor)
percent blocking of NPC1-dC binding [1]: 79% | percent blocking of NPC1-dC binding [2]: 72%
